Test results from US20180280532A1.

Molecular target: human Trop-2 (human) (UniProt P09758)
Assay: cell binding assay, cell line not named

Sequence of human Trop-2 (human) (P09758 27-323): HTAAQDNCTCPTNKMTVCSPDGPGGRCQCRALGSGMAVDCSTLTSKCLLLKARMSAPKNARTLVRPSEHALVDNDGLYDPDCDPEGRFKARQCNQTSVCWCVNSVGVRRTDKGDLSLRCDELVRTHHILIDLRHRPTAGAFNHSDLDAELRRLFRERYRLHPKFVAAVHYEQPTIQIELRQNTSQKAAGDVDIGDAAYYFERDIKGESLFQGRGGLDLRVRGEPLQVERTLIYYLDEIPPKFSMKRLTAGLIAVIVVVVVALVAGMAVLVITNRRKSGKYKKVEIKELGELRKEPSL

Kd: 1.2 nM
Substance: hRS7-CL2A-SN-38 (antibody)
